Measured values: patent US20180155451A1 (published 2018)

T1: FcγRIIa H (FcγRIIa, type H allotype, His at position 131), extracellular domain with C-terminal His tag (human, UniProt P12318 34-217)
T1 construct: extracellular domain; Soluble receptor expressed in FreeStyle293 cells; analyte in Biacore; also called FcgRIIa H; 2aH; not shown: C-terminal His tag
T1 sequence (looked up): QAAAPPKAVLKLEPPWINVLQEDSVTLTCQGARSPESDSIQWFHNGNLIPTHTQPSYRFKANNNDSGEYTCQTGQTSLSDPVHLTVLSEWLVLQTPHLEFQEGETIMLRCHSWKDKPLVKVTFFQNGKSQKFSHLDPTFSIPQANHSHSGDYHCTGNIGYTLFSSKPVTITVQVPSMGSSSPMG

T2: FcγRIIb, extracellular domain with C-terminal His tag (human, UniProt P31994 43-217)
T2 construct: extracellular domain; Soluble receptor expressed in FreeStyle293 cells; analyte in Biacore; also called FcgRIIb; 2b; not shown: C-terminal His tag
T2 sequence (looked up): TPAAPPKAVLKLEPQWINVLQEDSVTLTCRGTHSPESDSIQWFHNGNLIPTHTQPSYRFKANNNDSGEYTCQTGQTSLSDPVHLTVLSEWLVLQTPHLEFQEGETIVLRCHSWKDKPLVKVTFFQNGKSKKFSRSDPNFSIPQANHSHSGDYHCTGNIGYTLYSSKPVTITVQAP

T3: FcγRIIb (human, UniProt P31994 43-217)
T3 construct: extracellular domain; Soluble extracellular domain with C-terminal His tag, used as analyte in Biacore; also called FcgRIIb; 2b; not shown: His tag attached to the C terminus
T3 sequence (looked up): T2 sequence (looked up)

B1: GpH7-A5/GpH7-B3 variant Y300_07I/GpL16-k0 (antibody, human IgG1, kappa)
heavy 1: not shown
heavy 2: not shown
light: DIVMTQSPLSLPVTPGEPASISCQASESLVHSNRNTYLHWYLQKPGQSPQLLIYKVSNRFSGVPDRFSGSGSGTDFTLKISRVEAEDVGVYYCSQNTHVPPTFGQGTKVEIERTVAAPSVFIFPPSDEQLKSGTASVVCLLNNFYPREAKVQWKVDNALQSGNSQESVTEQDSKDSTYSLSSTLTLSKADYEKHKVYACEVTHQGLSSPVTKSFNRGEC
notes: Heterodimerized IgG1; mutation only in the GpH7-B3 chain; also called He Ab
B2: GpH7-A5/GpH7-B3 variant Q295_03V/GpL16-k0 (antibody, human IgG1, kappa)
heavy 1: not shown
heavy 2: not shown
light: B1 light
notes: as for B1
B3: GpH7-A5/GpH7-B3 variant E269_19Q/GpL16-k0 (antibody, human IgG1, kappa)
heavy 1: not shown
heavy 2: not shown
light: B1 light
notes: as for B1
B4: GpH7-A5/GpH7-B3 variant S298_07I/GpL16-k0 (antibody, human IgG1, kappa)
heavy 1: not shown
heavy 2: not shown
light: B1 light
notes: as for B1
B5: GpH7-A5/GpH7-B3 variant Q295_11K/GpL16-k0 (antibody, human IgG1, kappa)
heavy 1: not shown
heavy 2: not shown
light: B1 light
notes: as for B1
B6: GpH7-A5/GpH7-B3 variant E269_16H/GpL16-k0 (antibody, human IgG1, kappa)
heavy 1: not shown
heavy 2: not shown
light: B1 light
notes: as for B1
B7: GpH7-A5/GpH7-B3 variant Y300_11K/GpL16-k0 (antibody, human IgG1, kappa)
heavy 1: not shown
heavy 2: not shown
light: B1 light
notes: as for B1
B8: GpH7-A5/GpH7-B3 variant Q295_20W/GpL16-k0 (antibody, human IgG1, kappa)
heavy 1: not shown
heavy 2: not shown
light: B1 light
notes: as for B1
B9: GpH7-A5/GpH7-B3 variant Y300_08L/GpL16-k0 (antibody, human IgG1, kappa)
heavy 1: not shown
heavy 2: not shown
light: B1 light
notes: as for B1
B10: GpH7-A5/GpH7-B3 variant Y300_01G/GpL16-k0 (antibody, human IgG1, kappa)
heavy 1: not shown
heavy 2: not shown
light: B1 light
notes: as for B1
B11: GpH7-A5/GpH7-B3 variant S298_10E/GpL16-k0 (antibody, human IgG1, kappa)
heavy 1: not shown
heavy 2: not shown
light: B1 light
notes: as for B1
B12: GpH7-A5/GpH7-B3 variant P271_15Y/GpL16-k0 (antibody, human IgG1, kappa)
heavy 1: not shown
heavy 2: not shown
light: B1 light
notes: as for B1
B13: GpH7-A5/GpH7-B3 variant P271_20W/GpL16-k0 (antibody, human IgG1, kappa)
heavy 1: not shown
heavy 2: not shown
light: B1 light
notes: as for B1
B14: GpH7-A5/GpH7-B3 variant E269_14T/GpL16-k0 (antibody, human IgG1, kappa)
heavy 1: not shown
heavy 2: not shown
light: B1 light
notes: as for B1
B15: GpH7-A5/GpH7-B3 variant S298_16H/GpL16-k0 (antibody, human IgG1, kappa)
heavy 1: not shown
heavy 2: not shown
light: B1 light
notes: as for B1
B16: GpH7-A5/GpH7-B3 variant E269_20W/GpL16-k0 (antibody, human IgG1, kappa)
heavy 1: not shown
heavy 2: not shown
light: B1 light
notes: as for B1
B17: GpH7-A5/GpH7-B3 variant Y300_02A/GpL16-k0 (antibody, human IgG1, kappa)
heavy 1: not shown
heavy 2: not shown
light: B1 light
notes: as for B1
B18: GpH7-A5/GpH7-B3 variant S298_20W/GpL16-k0 (antibody, human IgG1, kappa)
heavy 1: not shown
heavy 2: not shown
light: B1 light
notes: as for B1
B19: GpH7-A5/GpH7-B3 variant L235_04F/GpL16-k0 (antibody, human IgG1, kappa)
heavy 1: not shown
heavy 2: not shown
light: B1 light
notes: Heterodimerized IgG1; mutation in the GpH7-B3 H chain only; also called He Ab

How the values were obtained:
[1] = biological target: T1, FcγRIIa H (FcγRIIa, type H allotype, …); assay: SPR (Biacore), captured antibody, FcγR as analyte
[2] = biological target: T2, FcγRIIb, extracellular domain with …; assay: SPR (Biacore), captured antibody, FcγR as analyte
[3] = biological target: T1, FcγRIIa H (FcγRIIa, type H allotype, …); assay: ratio of He/Con_2aH to He/Con_2b (FcγRIIa H over FcγRIIb), SPR
FcγRIa = biological target: T4, FcγRIa (human, UniProt P12314 16-292); assay: SPR (Biacore), antibody captured on antigen peptide, FcγR as analyte; relative to GpH7-A5/GpH7-B3/GpL16-k0 = 100
T4 construct: extracellular domain; Soluble extracellular domain with C-terminal His tag, used as analyte in Biacore; also called FcgRI; 1a; not shown: His tag attached to the C terminus
T4 sequence (P12314 16-292): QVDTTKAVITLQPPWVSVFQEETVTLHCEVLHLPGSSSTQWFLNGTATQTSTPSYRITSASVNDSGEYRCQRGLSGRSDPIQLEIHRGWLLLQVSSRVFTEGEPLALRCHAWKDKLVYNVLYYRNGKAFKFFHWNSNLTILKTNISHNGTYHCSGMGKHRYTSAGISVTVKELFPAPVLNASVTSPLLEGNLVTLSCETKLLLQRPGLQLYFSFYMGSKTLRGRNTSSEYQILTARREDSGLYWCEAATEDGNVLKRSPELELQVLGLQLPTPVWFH

FcγRIIb = biological target: T3, FcγRIIb; assay: as above

Binder | He/Con_2aH [1] | He/Con_2b [2] | He_2aH/2b (IIaH/IIb) [3] | He/Con_1a (FcγRIa) | He/Con_2b (FcγRIIb)
B1 | 108 relative, GpH7-A5/GpH7-B3/GpL16-k0 = 100 | 74.5 relative, GpH7-A5/GpH7-B3/GpL16-k0 = 100 | 1.45 | – | –
B2 | 92 relative, GpH7-A5/GpH7-B3/GpL16-k0 = 100 | 75.7 relative, GpH7-A5/GpH7-B3/GpL16-k0 = 100 | 1.22 | – | –
B3 | 80.2 relative, GpH7-A5/GpH7-B3/GpL16-k0 = 100 | 44.3 relative, GpH7-A5/GpH7-B3/GpL16-k0 = 100 | 1.81 | – | –
B4 | 86.9 relative, GpH7-A5/GpH7-B3/GpL16-k0 = 100 | 70.6 relative, GpH7-A5/GpH7-B3/GpL16-k0 = 100 | 1.23 | – | –
B5 | 89.4 relative, GpH7-A5/GpH7-B3/GpL16-k0 = 100 | 70.4 relative, GpH7-A5/GpH7-B3/GpL16-k0 = 100 | 1.27 | – | –
B6 | 59 relative, GpH7-A5/GpH7-B3/GpL16-k0 = 100 | 38.5 relative, GpH7-A5/GpH7-B3/GpL16-k0 = 100 | 1.53 | – | –
B7 | 66.9 relative, GpH7-A5/GpH7-B3/GpL16-k0 = 100 | 51.6 relative, GpH7-A5/GpH7-B3/GpL16-k0 = 100 | 1.3 | – | –
B8 | 55.6 relative, GpH7-A5/GpH7-B3/GpL16-k0 = 100 | 44.4 relative, GpH7-A5/GpH7-B3/GpL16-k0 = 100 | 1.25 | – | –
B9 | 108 relative, GpH7-A5/GpH7-B3/GpL16-k0 = 100 | 73.6 relative, GpH7-A5/GpH7-B3/GpL16-k0 = 100 | 1.47 | – | –
B10 | 74.4 relative, GpH7-A5/GpH7-B3/GpL16-k0 = 100 | 48.4 relative, GpH7-A5/GpH7-B3/GpL16-k0 = 100 | 1.54 | – | –
B11 | 58 relative, GpH7-A5/GpH7-B3/GpL16-k0 = 100 | 47.6 relative, GpH7-A5/GpH7-B3/GpL16-k0 = 100 | 1.22 | – | –
B12 | 64.6 relative, GpH7-A5/GpH7-B3/GpL16-k0 = 100 | 52.3 relative, GpH7-A5/GpH7-B3/GpL16-k0 = 100 | 1.24 | – | –
B13 | 77.4 relative, GpH7-A5/GpH7-B3/GpL16-k0 = 100 | 58.1 relative, GpH7-A5/GpH7-B3/GpL16-k0 = 100 | 1.33 | – | –
B14 | 69.6 relative, GpH7-A5/GpH7-B3/GpL16-k0 = 100 | 50.6 relative, GpH7-A5/GpH7-B3/GpL16-k0 = 100 | 1.37 | – | –
B15 | 82.1 relative, GpH7-A5/GpH7-B3/GpL16-k0 = 100 | 63.5 relative, GpH7-A5/GpH7-B3/GpL16-k0 = 100 | 1.29 | – | –
B16 | 60.9 relative, GpH7-A5/GpH7-B3/GpL16-k0 = 100 | 42.5 relative, GpH7-A5/GpH7-B3/GpL16-k0 = 100 | 1.43 | – | –
B17 | 93.5 relative, GpH7-A5/GpH7-B3/GpL16-k0 = 100 | 69.2 relative, GpH7-A5/GpH7-B3/GpL16-k0 = 100 | 1.35 | – | –
B18 | 49.9 relative, GpH7-A5/GpH7-B3/GpL16-k0 = 100 | 41.1 relative, GpH7-A5/GpH7-B3/GpL16-k0 = 100 | 1.21 | – | –
B19 | – | – | – | 97.1 % of control | 118 % of control
